Patent publication US8034913B2, “Recombinantly modified plasmin” (Grifols Therapeutics Inc., priority 2004, dated 2011)
Several values for one entry are separate records, joined by “and”; a condition that tells them apart may be missing. Equal entries are not always repeated. Where two headings read alike, the source gives them in different places.

T1: α2-antiplasmin (Homo sapiens, UniProt P08697)
T1 sequence (P08697 40-491): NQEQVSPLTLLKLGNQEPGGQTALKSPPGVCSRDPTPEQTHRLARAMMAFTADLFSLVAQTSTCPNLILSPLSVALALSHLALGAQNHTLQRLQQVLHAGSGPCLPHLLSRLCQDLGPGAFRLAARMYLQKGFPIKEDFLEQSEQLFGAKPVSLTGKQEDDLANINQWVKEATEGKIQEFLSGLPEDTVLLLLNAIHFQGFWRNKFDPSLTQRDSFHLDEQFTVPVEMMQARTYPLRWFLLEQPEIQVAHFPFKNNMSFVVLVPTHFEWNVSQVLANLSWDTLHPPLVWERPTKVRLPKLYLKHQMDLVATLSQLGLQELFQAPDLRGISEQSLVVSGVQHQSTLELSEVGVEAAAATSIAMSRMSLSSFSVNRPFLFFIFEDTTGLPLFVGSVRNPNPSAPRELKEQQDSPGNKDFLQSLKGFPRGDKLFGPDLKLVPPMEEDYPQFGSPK

T2: α2-macroglobulin (Homo sapiens, UniProt P01023)
T2 sequence (P01023 24-1474): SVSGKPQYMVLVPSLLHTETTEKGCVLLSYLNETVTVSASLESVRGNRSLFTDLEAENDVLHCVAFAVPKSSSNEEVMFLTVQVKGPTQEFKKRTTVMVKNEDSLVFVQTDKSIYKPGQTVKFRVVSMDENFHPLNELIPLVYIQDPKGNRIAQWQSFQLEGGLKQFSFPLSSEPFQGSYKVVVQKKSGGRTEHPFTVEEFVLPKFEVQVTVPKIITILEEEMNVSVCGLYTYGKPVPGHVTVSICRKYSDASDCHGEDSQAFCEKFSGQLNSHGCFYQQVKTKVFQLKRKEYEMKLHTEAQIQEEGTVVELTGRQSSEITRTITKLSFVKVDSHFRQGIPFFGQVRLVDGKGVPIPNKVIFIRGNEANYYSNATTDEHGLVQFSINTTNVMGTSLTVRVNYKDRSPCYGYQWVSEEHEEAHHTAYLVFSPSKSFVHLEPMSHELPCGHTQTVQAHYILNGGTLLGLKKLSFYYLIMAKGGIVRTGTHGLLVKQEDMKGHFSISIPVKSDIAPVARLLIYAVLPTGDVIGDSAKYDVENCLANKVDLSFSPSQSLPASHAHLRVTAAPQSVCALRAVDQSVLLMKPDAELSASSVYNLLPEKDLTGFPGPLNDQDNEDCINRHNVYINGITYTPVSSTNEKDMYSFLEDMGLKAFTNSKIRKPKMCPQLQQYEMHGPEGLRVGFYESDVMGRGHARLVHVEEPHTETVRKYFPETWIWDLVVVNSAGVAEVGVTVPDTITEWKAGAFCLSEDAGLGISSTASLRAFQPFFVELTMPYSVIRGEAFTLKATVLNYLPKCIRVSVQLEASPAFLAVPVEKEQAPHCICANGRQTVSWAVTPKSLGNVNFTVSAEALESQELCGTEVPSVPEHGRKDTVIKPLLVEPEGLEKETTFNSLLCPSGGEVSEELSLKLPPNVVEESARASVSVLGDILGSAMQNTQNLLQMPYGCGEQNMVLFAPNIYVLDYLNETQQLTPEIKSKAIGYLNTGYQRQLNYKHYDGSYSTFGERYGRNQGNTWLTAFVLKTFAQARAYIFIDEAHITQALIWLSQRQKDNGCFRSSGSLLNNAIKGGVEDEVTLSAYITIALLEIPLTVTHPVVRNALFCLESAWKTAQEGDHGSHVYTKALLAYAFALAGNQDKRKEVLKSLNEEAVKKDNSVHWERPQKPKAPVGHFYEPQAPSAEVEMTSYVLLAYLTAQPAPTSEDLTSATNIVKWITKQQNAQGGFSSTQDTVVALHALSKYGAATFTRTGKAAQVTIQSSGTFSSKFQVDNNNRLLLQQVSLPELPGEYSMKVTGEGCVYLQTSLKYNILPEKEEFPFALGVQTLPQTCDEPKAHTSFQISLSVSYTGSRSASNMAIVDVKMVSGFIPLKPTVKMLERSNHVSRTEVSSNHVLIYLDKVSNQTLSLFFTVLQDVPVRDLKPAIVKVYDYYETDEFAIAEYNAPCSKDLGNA

B1: micro-plasmin: plasmin species lacking all five kringles (protein)
chain: APSFDCGKPQVEPKKCPGRVVGGCVAHPHSWPWQVSLRTRFGMHFCGGTLISPEWVLTAAHCLEKSPRPSSYKVILGAHQEVNLEPHVQEIEVSRLFLEPTRKDIALLKLSSPAVITDKVIPACLPSPNYVVADRTECFITGWGETQGTFGAGLLKEAQLPVIENKVCNRYEFLNGRVQSTELCAGHLAGGTDSCQGDSGGPLVCFEKDKYILQGVTSWGLGCARPNKPGVYVRVSRFVTWIEGVMRNN
B2: plasmin: two-chain, disulfide-linked serine protease from activation of plasminogen (antibody)
heavy: EPLDDYVNTQGASLFSVTKKQLGAGSIEECAAKCEEDEEFTCRAFQYHSKEQQCVIMAENRKSSIIIRMRDVVLFEKKVYLSECKTGNGKNYRGTMSKTKNGITCQKWSSTSPHRPRFSPATHPSEGLEENYCRNPDNDPQGPWCYTTDPEKRYDYCDILECEEECMHCSGENYDGKISKTMSGLECQAWDSQSPHAHGYIPSKFPNKNLKKNYCRNPDRELRPWCFTTDPNKRWELCDIPRCTTPPPSSGPTYQCLKGTGENYRGNVAVTVSGHTCQHWSAQTPHTHNRTPENFPCKNLDENYCRNPDGKRAPWCHTTNSQVRWEYCKIPSCDSSPVSTEQLAPTAPPELTPVVQDCYHGDGQSYRGTSSTTTTGKKCQSWSSMTPHRHQKTPENYPNAGLTMNYCRNPDADKGPWCFTTDPSVRWEYCNLKKCSGTEASVVAPPPVVLLPDVETPSEEDCMFGNGKGYRGKRATTVTGTPCQDWAAQEPHRHSIFTPETNPRAGLEKNYCRNPDGDVGGPWCYTTNPRKLYDYCDVPQCAAPSFDCGKPQVEPKKCPGR
light: VVGGCVAHPHSWPWQVSLRTRFGMHFCGGTLISPEWVLTAAHCLEKSPRPSSYKVILGAHQEVNLEPHVQEIEVSRLFLEPTRKDIALLKLSSPAVITDKVIPACLPSPNYVVADRTECFITGWGETQGTFGAGLLKEAQLPVIENKVCNRYEFLNGRVQSTELCAGHLAGGTDSCQGDSGGPLVCFEKDKYILQGVTSWGLGCARPNKPGVYVRVSRFVTWIEGVMRNN
B3: mini-plasmin: activated mini-plasminogen (Val443-Asn791), fifth kringle and serine protease domain (K5-SP) (protein)
chain 1: VAPPPVVLLPDVETPSEEDCMFGNGKGYRGKRATTVTGTPCQDWAAQEPHRHSIFTPETNPRAGLEKNYCRNPDGDVGGPWCYTTNPRKLYDYCDVPQCAAPSFDCGKPQVEPKKCPGR
chain 2: VVGGCVAHPHSWPWQVSLRTRFGMHFCGGTLISPEWVLTAAHCLEKSPRPSSYKVILGAHQEVNLEPHVQEIEVSRLFLEPTRKDIALLKLSSPAVITDKVIPACLPSPNYVVADRTECFITGWGETQGTFGAGLLKEAQLPVIENKVCNRYEFLNGRVQSTELCAGHLAGGTDSCQGDSGGPLVCFEKDKYILQGVTSWGLGCARPNKPGVYVRVSRFVTWIEGVMRNN

Key:
urokinase [1] = biological target: T3, urokinase (Homo sapiens, UniProt P00749); conditions: urokinase activation; Wohl et al. 1980; read-out: Km, literature value; cited from earlier work
urokinase [2] = biological target: T3, urokinase; test: Kinetics of urokinase activation of plasminogen species (S-2251 coupled assay, method of Wohl et al.); assay type: biochemical; conditions: 5.8 nM urokinase, 1 mM S-2251, 37° C., pH 7.5
Description: Increases in absorbance were monitored at 405 nm.
Activation of delta-plasminogen to delta-plasmin was complete within 3 minutes under these conditions. Very similar results were obtained with tPA and streptokinase.
Data were fit to a Michaelis-Menten kinetic model using Lineweaver-Burk analysis, resulting in the values below: […]

α2-antiplasmin [3] = biological target: T1, α2-antiplasmin; test: Rate of inhibition by α2-antiplasmin (method of Wiman and Collen, S-2251 activity at time points); assay type: biochemical; conditions: 22° C. in PBS buffer, pH 7.4
Description: (§1) Literature values are taken from Anonick, et al., Thrombosis Res. 59:449 (1990). All rates were measured according to the methods published in Anonick, et al.

[4] = Amidolytic activity, steady-state kinetics with substrate S-2251; assay type: biochemical; conditions: S-2251, PBS buffer, pH 7.4, 25° C.; for kcat: delta-plasmin corrected for percent active sites
α2-macroglobulin = biological target: T2, α2-macroglobulin; test: Rate of inhibition by α2-macroglobulin (method of Anonick et al.); assay type: biochemical; conditions: 22° C. in PBS buffer, pH 7.4
Description: The rate of inhibition of delta-plasmin by α2-macroglobulin was measured using the method of Anonick et al. (Anonick, P., et al., Thrombosis Res. 59:449-462 (1990)).
as §1

α2-antiplasmin [5] = biological target: T1, α2-antiplasmin; conditions: literature value, Anonick et al. 1990; cited from earlier work
[6] = system: retracted whole human blood clots; test: In vitro model of catheter-assisted thrombolysis, lysis of retracted whole-blood clots; conditions: single 1-ml dose injected into clot, 60 min at 37° C.; delta-plasmin 0.44 mg, plasmin 1.0 mg (equimolar)
Description: FIG. 11 is a graphic representation of delta-plasmin-induced lysis of retracted whole-blood clots. Each clot (0.8×7 cm) was injected with a 1 ml volume of vehicle (acidified saline, pH 3.6), plasmin (1.0 mg/ml), or delta-plasmin (0.44 mg/ml), and clot dissolution was allowed to proceed at 37° C. for 1 hour.
The thrombolytic efficacy of delta-plasmin was tested in an in vitro model of catheter-assisted thrombolysis (Novokhatny, V. et al., J Thromb Haemost., 1(5):1034-41 (2003), incorporated by reference) using the following experimental protocol.
Fresh whole human blood was collected into 20×0.95 cm glass tubes and allowed to clot spontaneously without additives. Tubes were incubated for 20 hr at 37° C. to allow full retraction. Retracted clots were separated from serum using USA Standard testing sieves D16 with 14 mesh, and their weights were determined. […]
Single 1-ml doses of acidified saline, plasmin, or delta-plasmin were injected into the clot using a syringe. […] After the incubation, the clots were placed again on the sieve to remove the liquefied material and the weight of the digested clots was measured. The extent of clot lysis was determined from the difference between the initial clot weight and the weight of residual clot and was expressed as a percent of clot weight reduction.

Molecule | Km (urokinase [1]) | Km (urokinase [2]) | kcat (urokinase [2]) | inhibition rate by α2-antiplasmin (α2-antiplasmin [3]) | Km [4] | kcat [4] | inhibition rate by α2-macroglobulin (α2-macroglobulin) | inhibition rate by α2-antiplasmin (lit.) (α2-antiplasmin [5]) | clot weight reduction [6] | kcat ([4]; listed as full-length plasmin)
Plasminogen: human plasminogen, single-chain protein containing 791 amino acid residues | 1.7 µM | 1.2 µM | 0.0383 ± 0.005 s⁻¹ |  |  |  |  |  |  | 
B1 |  |  |  | 1.8×10^5 M^−1s^−1 and 3.1×10^5 M^−1s^−1 and 1.8 +/− 0.2 × 10^5 M^−1s^−1 | 145 µM | 13.2 ± 0.4 s⁻¹ | 7.8 +/− 0.6 × 10^5 M^−1s^−1 |  |  | 
B2 |  |  |  |  | 193 µM | 12.7 ± 0.383 s⁻¹ | 6.5 +/− 0.5 × 10^5 M^−1s^−1 | 2.5×10^7 M^−1s^−1 and 2.5 +/− 0.5 × 10^7 M^−1s^−1 | 50% | 12.7 ± 0.383 s⁻¹
B3 |  |  |  | 2.4×10^5 M^−1s^−1 and 2.4 +/− 0.5 × 10^5 M^−1s^−1 | 160 µM | 12.8 ± 1.17 s⁻¹ | 7.5 +/− 0.3 × 10^5 M^−1s^−1 |  |  | 
